Experiment [1] concerns the target T1, human AXL (full length) (human, UniProt P30530 26-894).
T1 construct: also called TH1021-AXL; TH1021-hAXL
Kind of experiment: FMAT screening assay, HEK-293F cells transiently expressing human AXL.

Experiment [2] has as its target T1, human AXL (full length). Nature of the experiment: flow cytometry, HEK293T cells with full-length human AXL.
Experiment [3] concerns the target T2, human AXL with a cynomolgus monkey extracellular domain (ECD) (cynomolgus monkey (Macaca …, UniProt P30530 26-894)).
T2 construct: Chimera on transfected HEK293T cells; also called cynomolgus AXL; cynomolgus AXL-ECD
T2 chain: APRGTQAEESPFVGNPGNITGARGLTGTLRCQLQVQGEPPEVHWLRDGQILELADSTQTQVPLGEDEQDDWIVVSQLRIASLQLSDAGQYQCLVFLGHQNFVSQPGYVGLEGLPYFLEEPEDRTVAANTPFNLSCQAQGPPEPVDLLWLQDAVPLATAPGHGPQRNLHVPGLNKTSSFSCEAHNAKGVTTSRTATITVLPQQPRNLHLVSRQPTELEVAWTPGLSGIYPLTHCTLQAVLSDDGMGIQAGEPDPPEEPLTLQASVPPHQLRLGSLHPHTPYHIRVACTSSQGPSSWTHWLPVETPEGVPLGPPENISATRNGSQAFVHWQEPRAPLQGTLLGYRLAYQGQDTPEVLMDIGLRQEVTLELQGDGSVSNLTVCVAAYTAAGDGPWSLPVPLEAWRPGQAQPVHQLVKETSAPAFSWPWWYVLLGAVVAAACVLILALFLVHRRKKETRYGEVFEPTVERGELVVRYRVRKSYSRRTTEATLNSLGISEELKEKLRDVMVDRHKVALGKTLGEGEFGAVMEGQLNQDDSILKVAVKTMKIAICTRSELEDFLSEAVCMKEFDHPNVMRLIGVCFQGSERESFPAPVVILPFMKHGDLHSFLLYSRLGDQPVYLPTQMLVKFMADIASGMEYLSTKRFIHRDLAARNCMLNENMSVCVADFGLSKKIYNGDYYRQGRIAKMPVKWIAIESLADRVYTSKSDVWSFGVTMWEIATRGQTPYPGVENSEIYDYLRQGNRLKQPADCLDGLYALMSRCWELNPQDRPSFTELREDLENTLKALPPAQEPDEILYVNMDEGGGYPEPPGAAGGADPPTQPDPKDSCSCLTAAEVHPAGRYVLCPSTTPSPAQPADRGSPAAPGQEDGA
Nature of the experiment: flow cytometry, HEK293T cells with human AXL carrying cynomolgus ECD.

The next experiment has as its target T3, AXLECDHis (human, UniProt P30530 26-447).
T3 construct: theoretical mass 46 kDa used; also called extracellular domain (ECD) of human AXL (aa 1-447) with a C-terminal His tag; soluble recombinant AXL extracellular domain
Kind of experiment: BLI (Octet), IgG on anti-human Fc sensor, AXLECDHis analyte.

Residue numbers refer to the chain shown, from its start.

B1: IgG1-AXL-613-08 (antibody, V domains shown)
VH: QVQLVQSGAEVKKPGSSVKVSCKASGGTFSSYAINWMRQAPGQGLEWMGRIIPIFGIVNYAQKFQGRVTLTADKSTSTAYMELSSLRSEDTAVYYCARRGNYYGSGSPDVFDIWGQGTMVTVSS
VL: EIVLTQSPATLSLSPGERATLSCRASQSVSSYLAWYQQKPGQAPRLLIYDASNRATGIPARFSGSGSGTDFTLTISSLEPEDFAVYYCQQRSNWLTFGGGTKVEIK
Consider B1, for which, in the experiment with human AXL (full length) [1], the concentration giving a half-maximal response (EC50) is 0.0242 µg/mL and the “Maximal binding (Arbitrary units)” value was found to be 2210 arbitrary units.

B2: IgG1-AXL-140 (antibody, V domains shown)
VH: EVQLLESGGGLVQPGGSLRLSCAASGFTFSSYAMTWVRQAPGKGLEWVSAISISGASTFYADSVKGRFTISRDNSKNTLSLQMNSLRAEDTAVYFCRGYSGYVYDAFDIWGQGTMVTVSS
VL: DIQMTQSPSSLSASVGDRVTITCRASQGISNWLAWYQQKPEKAPKSLIYAASSLQSGVPSRFSGSGSGTDFTLTISSLQPEDFATYYCQQYNSYPLTFGGGTKVEIK
B2: in the experiment with human AXL (full length) [1], the half-maximal effective concentration (EC50) worked out at 0.0026 µg/mL and the “Maximal binding (Arbitrary units)” value stood at 2890 arbitrary units.

B3: IgG1-AXL-187 (antibody, V domains shown)
VH: QVPLQQWGAGLLKPSETLSLTCAVYGGSFSGYHWSWIRQPPGKGLEWIGEISHSGRTNYNPSLKSRVTISIDTSKNQFSLKLSSVTAADTAVYYCASFITMIRGTIITHFDYWGQGTLVTVSS
VL: B2 VL with N31S, N92H, L96Y, G100Q, V104L
As to B3, in the experiment with human AXL (full length) [1], the 50% effective concentration (EC50) was found to be 0.0065 µg/mL and the “Maximal binding (Arbitrary units)” value was 2560 arbitrary units.

B4: IgG1-AXL-726-M101L (antibody, V domains shown)
VH: B3 VH with P3Q, V24I, Y25D, H33Y, T86A, S97R, M101L, T105A, T117A
VL: B2 VL with N31S, N92H, L96Y, G100Q, V104L
notes: Expressed as human IgG1,κ
On to B4, for which, in the experiment with human AXL (full length) [2], the concentration for a half-maximal effect (EC50) was found to be 0.184 µg/mL. In addition, the EC50 in experiment [3] was determined as 0.25 µg/mL. In the experiment with AXLECDHis, the equilibrium dissociation constant (Kd) amounted to 0.3 nM, the koff came out at 6.9e-05 s⁻¹ and the kon amounted to 210000 M⁻¹ s⁻¹.

These data come from US20180326084A1 (Genmab, published 2018).
